Literature values, collected in PMC7039207.

Molecular target: Vinculin tail D5 (Gallus gallus) (UniProt P12003)

For “Vinculin head D1-D4 (from UniProt P12003)”, the Kd is given as 100 nM.
